Measurements published in publication PMC7108746.

Target: transmembrane Crumbs2 (CRB2TM) (mouse (endogenous in E15.5 spinal cord sections)) (UniProt Q80YA8)
Chain of UniProt Q80YA8 (Q80YA8 36-1282): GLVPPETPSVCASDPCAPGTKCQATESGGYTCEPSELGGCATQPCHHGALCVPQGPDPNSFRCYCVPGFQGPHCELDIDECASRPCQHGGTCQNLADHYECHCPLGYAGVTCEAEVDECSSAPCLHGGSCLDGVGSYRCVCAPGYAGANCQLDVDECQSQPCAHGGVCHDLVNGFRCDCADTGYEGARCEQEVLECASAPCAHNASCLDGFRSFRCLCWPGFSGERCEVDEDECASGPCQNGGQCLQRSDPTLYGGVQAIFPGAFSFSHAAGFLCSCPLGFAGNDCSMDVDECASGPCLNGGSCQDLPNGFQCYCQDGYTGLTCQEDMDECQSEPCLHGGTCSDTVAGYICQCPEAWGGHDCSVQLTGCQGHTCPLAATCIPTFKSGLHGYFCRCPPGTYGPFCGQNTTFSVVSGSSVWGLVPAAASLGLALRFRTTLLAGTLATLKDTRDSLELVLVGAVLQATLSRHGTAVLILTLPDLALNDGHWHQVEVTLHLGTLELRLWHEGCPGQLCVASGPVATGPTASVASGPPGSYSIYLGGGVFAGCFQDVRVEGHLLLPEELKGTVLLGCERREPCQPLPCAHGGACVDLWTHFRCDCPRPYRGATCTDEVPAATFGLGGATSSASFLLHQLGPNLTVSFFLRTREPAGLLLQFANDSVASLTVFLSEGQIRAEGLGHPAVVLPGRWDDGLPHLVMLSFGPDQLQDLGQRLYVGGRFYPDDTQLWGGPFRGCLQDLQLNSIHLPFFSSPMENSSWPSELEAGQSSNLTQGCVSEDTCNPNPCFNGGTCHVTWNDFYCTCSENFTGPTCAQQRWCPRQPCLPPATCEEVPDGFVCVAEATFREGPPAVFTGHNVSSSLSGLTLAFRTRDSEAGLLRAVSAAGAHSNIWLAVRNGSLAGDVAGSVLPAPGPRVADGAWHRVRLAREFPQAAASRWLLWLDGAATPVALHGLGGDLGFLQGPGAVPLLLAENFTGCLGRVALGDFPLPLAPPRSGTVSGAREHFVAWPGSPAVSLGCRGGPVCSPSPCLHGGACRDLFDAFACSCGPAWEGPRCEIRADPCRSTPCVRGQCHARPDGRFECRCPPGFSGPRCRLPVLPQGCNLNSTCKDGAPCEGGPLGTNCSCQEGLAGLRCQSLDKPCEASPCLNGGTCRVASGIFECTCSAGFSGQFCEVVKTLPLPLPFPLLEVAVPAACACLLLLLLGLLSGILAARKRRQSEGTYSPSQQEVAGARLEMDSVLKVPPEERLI

Question: Which apically localised ZO-1 in MDCK cells seeded at high density and cultured with high concentrations of CRB2S (77% of cells in control medium) does the source give for “secreted Crumbs2 (CRB2S), His-tagged (natural protein)” here?
Answer: 23%
